Measured values from paper PMC3726423.

How the values were obtained:
[1] = target: T1, L7Ae (Pyrococcus abyssi, UniProt P62008 1-123); experiment: footprinting (Pb2+); K-loop KTa/KTb protected; EMSA: 150 mM KCl, 1.5 mM MgCl2, 0.2 mM EDTA, 20 mM HEPES pH 7.9, 65 C 10 min, 50 fmol sRNA, 200 nM proteins (Kd: 50-400 nM aCBF5); fluorescence: 300 mM NaCl, 25
[2] = target: T1, L7Ae; experiment: footprinting (Pb2+); K-loop KTa/KTb protected; A34-U35 enhanced; EMSA: 150 mM KCl, 1.5 mM MgCl2, 0.2 mM EDTA, 20 mM HEPES pH 7.9, 65 C 10 min, 50 fmol sRNA, 200 nM proteins (Kd: 50-400 nM aCBF5); fluorescence: 300 mM NaCl, 25

Row | Binder | binding result [1] | binding result [2]
1 | Pab91 H/ACA sRNA (structured_RNA) RNA: GGGUAAUGCCCCUCCCCUCUCACACCUCCGGGAUCAGUGACCGGAGGGCGGUCGGGGAGGGGACACCU | binds | 
2 | Pab21 H/ACA sRNA (structured_RNA) RNA: GGGGAUGGGCCCGGCUCCCGCCCUCUCCGGGGAAUCGUGAACCGGGGGUUCCGGCCGGGCCUACAGU |  | binds
